Results published in IntAct's records for PubMed 12670962.

B1: Cell division inhibitor SulA (Escherichia coli (strain K12)), P0AFZ5 (parent)
chain: MYTSGYAHRSSSFSSAASKIARVSTENTTAGLISEVVYREDQPMMTQLLLLPLLQQLGQQSRWQLWLTPQQKLSREWVQASGLPLTKVMQISQLSPCHTVESMVRALRTGNYSVVIGWLADDLTEEEHAELVDAANEGNAMGFIMRPVSASSHATRQLSGLKIHSNLYH

Variants of: B1
Settings: with hslu_ecoli hslU

Variant | effect of a mutation on the interaction
M89I | increasing interaction
L57F | disrupting interaction
